These results are taken from patent US20180208663A1 (AGENCY FOR SCIENCE TECHNOLOGY AND RESEARCH, published 2018).

Assay [1] addresses T1, recombinant human γc (human, UniProt P31785 23-262, limits assumed).
T1 construct: also called common γ chain; IL-2Rγ
T1 sequence (looked up): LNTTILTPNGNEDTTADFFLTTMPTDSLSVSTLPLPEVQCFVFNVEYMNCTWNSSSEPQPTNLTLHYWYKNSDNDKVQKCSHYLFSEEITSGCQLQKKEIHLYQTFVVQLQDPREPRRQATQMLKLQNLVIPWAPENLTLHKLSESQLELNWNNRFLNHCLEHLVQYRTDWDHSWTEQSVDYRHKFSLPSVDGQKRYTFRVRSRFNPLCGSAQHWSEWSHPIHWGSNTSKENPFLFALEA
Kind of assay: ELISA, scFv titrated (nM) on γc (IL-2Rγc). In general terms: An ELISA detects its analyte on a solid surface through an enzyme-linked reagent.

In assay [2] the target is T2, recombinant human IL-2Rβ (human, UniProt P14784 27-240).
T2 construct: also called CD122; interleukin 2 receptor β
T2 sequence (looked up): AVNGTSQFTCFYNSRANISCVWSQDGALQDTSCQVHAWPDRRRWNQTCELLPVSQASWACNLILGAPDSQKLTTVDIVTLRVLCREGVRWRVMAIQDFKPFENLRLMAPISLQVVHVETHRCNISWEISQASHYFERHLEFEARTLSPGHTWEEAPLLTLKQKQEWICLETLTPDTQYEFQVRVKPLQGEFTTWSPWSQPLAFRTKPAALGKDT
Put plainly: ELISA, scFv titrated (nM) on IL-2Rβ.

B1: P1A3_FW2 single chain antibody (scFv)
scFv: EVQLVESGGGLVQPGGSLRLSCAASGGSFSGYYWSWVRQAPGKGLEWVSEINHSGSTNYNPSLKSRFTISRDNSKNTLYLQMNSLRAEDTAVYYCARSPGGYSGGYFQHWGQGTLVTVSSGGGGSGGGGSGGGGSDIQMTQSPSSLSASVGDRVTITCRSSQSLLHSNGYNYLDWYQQKPGKAPKLLIYLGSNRDSGVPSRFSGSGSGTDFTLTISSLQPEDFATYYCMQGTHWPWTFGQGTKVEIK
By EC50 (read off the curve) is commonly meant the concentration that produces a half-maximal response. B1: the “EC50 (read off the curve)” value in assay [1] is around 60 nM.

B2: P2C4_FW2 single chain antibody (scFv)
scFv: EVQLVQSGAEVKKPGASVKVSCKASGYTFTNYYMHWVRQAPGQGLEWMGAIMPSRGGTSYPQKFQGRVTITADKSTSTAYMELSSLRSEDTAVYYCARGEYYYDSSGYYYWGQGTLVTVSSGGGGSGGGGSGGGGSQSVLTQPPSVSGAPGQRVTISCTGTSSDIGHYDFVSWYQQLPGTAPKLLIYDINNRPSGVPDRFSGSKSGTSASLAITGLQAEDEADYYCSAYTSSDTLVFGGGTKLTVL
In the case of B2, in assay [2], the “EC50 (read off the curve)” value was around 1 nM.
